Values quoted from earlier work in PMC6530603.

Molecular target: VP30 CTD (Zaire ebolavirus) (UniProt Q77DJ5)

Nucleoprotein NP C-terminal region peptide (from UniProt P18272)
Kd: 5.7 µM
